The text below walks through data of IntAct's records for PubMed 8599766.

Sequences and labels used below:
B1: Insulin receptor substrate 1 (Homo sapiens), P35568 (parent)
chain: MASPPESDGFSDVRKVGYLRKPKSMHKRFFVLRAASEAGGPARLEYYENEKKWRHKSSAPKRSIPLESCFNINKRADSKNKHLVALYTRDEHFAIAADSEAEQDSWYQALLQLHNRAKGHHDGAAALGAGGGGGSCSGSSGLGEAGEDLSYGDVPPGPAFKEVWQVILKPKGLGQTKNLIGIYRLCLTSKTISFVKLNSEAAAVVLQLMNIRRCGHSENFFFIEVGRSAVTGPGEFWMQVDDSVVAQNMHETILEAMRAMSDEFRPRSKSQSSSNCSNPISVPLRRHHLNNPPPSQVGLTRRSRTESITATSPASMVGGKPGSFRVRASSDGEGTMSRPASVDGSPVSPSTNRTHAHRHRGSARLHPPLNHSRSIPMPASRCSPSATSPVSLSSSSTSGHGSTSDCLFPRRSSASVSGSPSDGGFISSDEYGSSPCDFRSSFRSVTPDSLGHTPPARGEEELSNYICMGGKGPSTLTAPNGHYILSRGGNGHRCTPGTGLGTSPALAGDEAASAADLDNRFRKRTHSAGTSPTITHQKTPSQSSVASIEEYTEMMPAYPPGGGSGGRLPGHRHSAFVPTRSYPEEGLEMHPLERRGGHHRPDSSTLHTDDGYMPMSPGVAPVPSGRKGSGDYMPMSPKSVSAPQQIINPIRRHPQRVDPNGYMMMSPSGGCSPDIGGGPSSSSSSSNAVPSGTSYGKLWTNGVGGHHSHVLPHPKPPVESSGGKLLPCTGDYMNMSPVGDSNTSSPSDCYYGPEDPQHKPVLSYYSLPRSFKHTQRPGEPEEGARHQHLRLSTSSGRLLYAATADDSSSSTSSDSLGGGYCGARLEPSLPHPHHQVLQPHLPRKVDTAAQTNSRLARPTRLSLGDPKASTLPRAREQQQQQQPLLHPPEPKSPGEYVNIEFGSDQSGYLSGPVAFHSSPSVRCPSQLQPAPREEETGTEEYMKMDLGPGRRAAWQESTGVEMGRLGPAPPGAASICRPTRAVPSSRGDYMTMQMSCPRQSYVDTSPAAPVSYADMRTGIAAEEVSLPRATMAAASSSSAASASPTGPQGAAELAAHSSLLGGPQGPGGMSAFTRVNLSPNRNQSAKVIRADPQGCRRRHSSETFSSTPSATRVGNTVPFGAGAAVGGGGGSSSSSEDVKRHSSASFENVWLRPGELGGAPKEPAKLCGAAGGLENGLNYIDLDLVKDFKQCPQECTPEPQPPPPPPPHQPLGSGESSSTRRSSEDLSAYASISFQKQPEDRQ

This assay covers variants of B1. Conditions: with il4ra_human IL4R.
R227Q: the “effect of a mutation on the interaction” value is given as “decreasing interaction”. As to M257A, the “effect of a mutation on the interaction” value is “decreasing interaction”.

On to R212Q, for which the “effect of a mutation on the interaction” value is given as “decreasing interaction”.

For the variant R212Q;R227Q, the “effect of a mutation on the interaction” value is “disrupting interaction”.
